Results as given in a protein production outcome set (Wang et al. 2014).

Assay: label from the status in PepcDB records

With “MIMANWQSIDELQDIASDLPRFTHALDELSRRLGLDITPLTADHISLRCHQNVTAERWRRGFEQCGELLSENMINGRPICLFKLHEPVQVAHWQFSIVELPWPGEKRYPHEGWEHIEIVLPGDPETLNARALALLSDEGLSLPGISVKTSSPKGEHERLPNPTLAVTDGKTTIKFHPWSIEEIVASEQSA” the protein production was “not failed”.

For “MLIWWRGKFRRADEISLDFSLFEKSLQGAVYETLRTYSRAPFAAYKHYTRLKRSADFFNLPLSLSFDEFTKVLKAGADEFKQEVRIKVYLFPDSGEVLFVFSPLNIPDLETGVEVKISNVRRIPDLSTPPALKITGRTDIVLARREIVDCYDVILLGLNGQVCEGSFSNVFLVKEGKLITPSLDSGILDGITRENVIKLAKSLEIPVEERVVWVWELFEADEMFLTHTSAGVVPVRRLNEHSFFEEEPGPVTATLMENFEPFVLNLEENWVGI”, the protein production was “not failed”.

In the case of “NLLDDAVKRISEDPPCKCPTKFCVERLSQGRYRVGEKILFIRMLHNKHVMVRVGGGWETFAGYLLKHDPCRMLQISRVDGKTSP”, the protein production is reported as “not failed”.

For “MTDYGEEQRNELEALESIYPDSFTVLSENPPSFTITVTSEAGENDETVQTTLKFTYSEKYPDEAPLYEIFSQENLEDNDVSDILKLLALQAEENLGMVMIFTLVTAVQEKLNEIVDQIKTR”, the protein production was “not failed”.

In the case of “MRKDILYMLLLLLITDLSIIADIPVLRQSLPFIFFTIIPGYLLLGILKFKVELIDGSVIAAALSIFLMMMTGLIINSFYPLIMRPLSLLPILSAINLLIIALMVIYHLRGEEPLNLKASGNLSTALSSLLFPVLTVIGSYLMNKYSVNTVLLLVLLFIPVYIILLEVFKKKIGPATYPVAIFSISLSLLIMNGLPSNYLIGRDIHWEFYLFRKALMAHHWDMHVGSYNAYNACLSVTVLPVIYKVLLNVPEVYIFKFYYGFIGALMPLPVYLISERILKRSDYGFYATLLFIFQFSFIYILGWCRQLVALLFFAAAVMVLTGDMRRSHKKLLFVVFMVGTVLSHYTTAYVFFFLVALIPILVRVMKRLKVPDDSRGFFAASLAVLFFVVVFAWYAQATGAPFKSAVSFFTKTLRSMSEFFSADMRNNSELAVVGIGISNFPNLLSTLVHDTVFALIGAGALAVIFKEEYRQGREYLAAVILCMGILVAFIALPFVSKGYGGPRLFTQLLVILAPLFITGIDALTGFIGRVRWRIPSIIVLLILLFSCTTYLNYHFAGIPYSYAYDDGGERRYETFIYDNEVTGALWLSNHYNETSVIHGDKMIYSRIIYGFSTYPRVDREFFNGTDTETGGYVYLTHFNLYQRLVFLDYPLAPPRVVNGALKLDNVESINNYKDLIVNMSTIYDNGGSRVLIVA”, the protein production is reported as “failed”.

In the case of “MKRTLLAISIFAITCNASASSSPDAVSSMSDRYSTLANLEMNGGFPTETSQKILQNESYFQRASMLYQWALPIVNMKAMQEGHAELMNGTAYNKIAIYQDRLKPNSLITTPNSDVIYAMGWLDMKETGPLIIEHPAGLQSLMDDMYHHPLRGPLDKNQPGGQYLGDIGNAGPDKGKAAKFLILPPNKKREDYAQLADKYFIYESNTSEVFLFLRSFFKDMNNLEPAVNRVKEIKVYPLNGSAESMEFFNVSDVPSKSIWDNDYRFYETLNRAVQNMELATFDPYMNGVMAAIGISKGVEFTPTEKQKEMLTKAAQTGWKISKEIALNFDEKSSKTTGDTWFWKEAPSWVAHALTDKGNQYHALSDPYYHNIKTGYTNVDAITHMYTNHYSMSSGMINAKIGAGAKYAGAYKDKDLNPLIGSCNYSLHIPADVPASLFWSVTAYDAATAAGVNVENHQWPSLGDRDNPIKNSDDSVTLFFGPTAPENAQLAKNNWLQFDNDSWFSLIRFYGPQQSLFDGSWVPGEFEKINCVK”, the protein production is reported as “failed”.

With “MITFRKRVEIEADPAEVFRVISDPWRITEFWKGTRQVIEDGDFYRIRFAFPAWGLMSFHPDAERMTVLTSYLKGPVRGSKVDAVLVSSGKTVLQTEWNVRLSFYLRPFERRIASHFESGADHAINRIKESVEKDKK” the protein production was “failed”.

With “EVQKPLHEQLWYHGAIPRAEVAELLVHSGDFLVRESQGKQEYVLSVLWDGLPRHFIIQSLDNLYRLEGEGFPSIPLLIDHLLSTQQPLTKKSGVVLHRAVP” the protein production was “not failed”.

In the case of “MTHVEDDKEFKEKPLVQVLSDDDSEVKEAKDGGGEEVTGGDGEGEANEEDLGTEYLVRPVGEVEDEDDASDFDPEENGLDEEEGDEEIEEDDVDEDISLSAGKSEPLSKRKRVAKDHSEQGDVTGDNIRPSKR”, the protein production is reported as “failed”.

For “MSTPTPDTDVEQVGLANTAFYEAMERGDFETLSSLWLTPADLGVDEEYHDPADAGVVSCVHPGWPVLSGRGEVLRSYALIMANTEYIQFFLTDVHVSVTGDTALVTCTENILSGGPPPDDSDELGPLVGQLVVATNVFRRTPDGWKLWSHHASPVLAETGAEEGDESPD”, the protein production was “not failed”.

With “MPTVLRWTRTMCKRPTCRVRQAWLVLPITGRWPSGGVSMKHACMLDSALPKPSQHSLRRQLNAIKREQFPWMSEVTKNAPQMAIIQLGRAFQNFFAGRAKYPKFRKKGMHDRFTLTNDQFDLEASRIRIPRLGWVRMRETLRFAGKIMLATVSRVAGRWFVSITVDVPDPSHLPQAENQGTVGVDLGVLVLATLSTGETVCGPRPHRALLGRVCRLSRSVLRKVKGSANRHKAKATLANLHARIAAIRLDALHTLTSDLTRRFHTIGIENLNVKGMLRNRHLARSIADIGFFEFRRQLEYKAMMRGGQVVVANRFFASSKRCLTCGHTLNELPLSVRQWACPACGARHDRDVNAAVNLKNMAVSSTVSACGEEGAGPRRKTAVGEAGSQLLEHHHHHH” the protein production was “failed”.

For “MAVDMFIKIGDVKGESKDKTHAEEIDVLAWSWGMSQSGSMHMGGGGGAGKVNVQDLSFTKYIDKSTPNLMMACSSGKHYPQAKLTIRKAGGENQVEYLIITLKEVLVSSVSTGGSGGEDRLTENVTLNFAQVQVDYQPQKADGAKDGGPVKYGWNIRQNVQA”, the protein production was “not failed”.

For “MANIEIRQETPTAFYIKVHDTDNVAIIVNDNGLKAGTRFPDGLELIEHIPQGHKVALLDIPANGEIIRYGEVIGYAVRAIPRGSWIDESMVVLPEA”, the protein production was “not failed”.

In the case of “ARNAVMVIDGIPVTKSSNTINDALEGVTFNLLKANPGTTTTLTVEKDKSNVEAAVNAFVKAYNDLEKTIGNLSRYDAANKQASVLTGDSTMRMIQNRMRAMLGGNQSAAGGINSLSELGISFQKDGTLALDNNKLSAVLNNPDKNIAAFFTTQGGDDTTSVEGFASRLSELIDGMTRSDGLISSRMDGINSTIKGIGKQREALEFRLESVEKRLRAQFTALDTMIASMNQ”, the protein production is reported as “not failed”.

In the case of “MTTVDSPRDANGPPRFAASGFATPRRPDDTDDTGDADETAATVPHRTRALTTPPRRKTIAAPCIDARTRRDRPARRATHARRALADFRAPAPPVARGTTRNRARRYACPSVDAVARTAPSPHAHRAAPARRPPSSEGAIMSEAVRMERDTFGEIAVPAARLWGAQTQRSLQNFKISTEKQSPELIHALALIKRAAAAVNLELGVLAQDKANAIVAAADEIIAGRHADEFPLAVWQTGSGTQTNMNLNEVIANRASELLGGERGESRAVHPNDDVNRGQSSNDVFPTAMHIAAARAIVDHLLPALRTLRATLDAKAAAFADIVKIGRTHLQDATPLTLGQEFSGYVAQLDQGIRHVEAALPHLYELAQGGTAVGTGLNAHPKFAAGVAAEIGRLTGLPFVSAPNKFEVMAAADALVFAHGALKTVAASLMKIANDIRWLASGPRCGLGELSIPENEPGSSIMPGKVNPTQSEAVTMLCCQVFGNDVAVNFGGASGNFELNVFRPMIAHNVLQSVRLLADGAQGFNDHCAVGIEPNRARIDALLNESLMLVTALNPHIGYDKAAQIAKKAHKEGTTLKAAALALGYVTDAQFDEWVRPEHMVGNR”, the protein production is reported as “not failed”.

With “MLWFLTCVAALVGGYFIYGAFVEKVFGINEKRQTPAHTKTDGVDYVPMSTPKVYLVQLLNIAGVGPIFGPIMGALYGPAAMLWIVVGCIFAGAVHDYFSGMLSIRNGGASVPSITGRYLGNGAKHFMNIFAIVLLLLVGVVFVSAPAGMITNLINQQTDFTVSMTTMVVIIFAYYILATIVPVDKIIGRFYPLFGALLIFMSVGLMTAIAFSSEHQVLGGFEISDMVKNLNPNDMPLWPALFITIACGAISGFHATQSPLMARCMENEKNGRFVFYGAMIGEGIIALIWCTVALSFFGSLEALSEAVKNGGPGNVVYGASFGLLGVFGGVIAFLGVVILPITSGDTAFRSSRLILAEYFNMEQKTLRNRLLMAVPLFVIGAVLTQVDFGIIWRYFGFANQATAVMMLWTATAYLMRHNKLHWICTVPALFMTTVCISFILNSSTLGFGLPMQISTIAGVLASLGALAYVAKVSKGKGETDLADEEKPQGVTKTA” the protein production was “failed”.

In the case of “MDSPIINEQFWDALFFNGTMPWDRSQTPNELKHYLKRIADKTHSVFIPGCGAAYEVSHFVDCGHDVIAMDYSAEAVNLAKSQLGQHQDKVMLGDVFNADFSREFDVIYERAFLAALPREIWGDYFAMIERLLPSNGLLVGYFVISDDYRSRFPPFCLRSGEIEQKLEANFHLIESTPVTDSVDVFKGKEQWMVWQKLEHHHHHH”, the protein production is reported as “failed”.

For “MKRKSLKSFIYVSALLVFLSGFVGVSLFVKSEVVEATTIGDDYPVKWKNLPLGGAIDDWRMYTRYCTSFVAYRLSTANNFELPSGFGNADRWGTEAMARGYKVDKNPKVGSVAWWTSTHVAWVAEVSGDNVKVEEYNYGFDGKYNTRWINKNSANGYIHFKDMPQTPVGWYNNGHYDYYYYADGTKAIGLTWVGTKRYNFDKNGAMYKNAWTNSDKYSYYSTSDGSLAVGLTWVGTKRYNFDKNGAMYKNAWTNSDKYSYYSTSDGSLAVGLTWVGTKRYNFDKNGAMYKNAWTNSDKYSYYSTSDGSLAVGHQQIGENKYIFDKNGALYKNMWVDLDGNRYYSKEDGALAIGEQIIDGITYMFDESGKLVNNLEHHHHHH”, the protein production was “not failed”.

In the case of “MKLLREMLIVVFIYFLGEFISKSFIHSVPGNIIGMLILLVLLCTKVVKVESIDCVAQFFLDHLAFFFVPAGVGLMTSVGLLEGNVLKLLFICIASTFVVIGVTGLVVQALIRRKEKKLLGDEVNE”, the protein production is reported as “failed”.

For “HHSVEAPQVKKRMGKFPFVKASKKESEEISKQLHNALDIELPSESTVWLRDKDVWLFPDALEPMIGELRFSRMGIKIAEAHKNGYRWQHQVATALATGAESNAIELTIEEAREWYMGRDVRPQIIPEGLKTGKGEVLVKYQGAIIGLGKWVSNRIKNGLPRELVRDKNLF”, the protein production was “not failed”.

With “MSSRTVLAPGNDRNSDTHGTLGSGRSSDKGPSWSSRSLGARCRNSIASCPEEQPHVGNYRLLRTIGKGNFAKVKLARHILTGREVAIKIIDKTQLNPSSLQKLFREVRIMKGLNHPNIVKLFEVIETEKTLYLVMEYASAGEVFDYLVSHGRMKEKEARAKFRQIVSAVHYCHQKNIVHRDLKAENLLLDAEANIKIADFGFSNEFTLGSKLDTFCGSPPYAAPELFQGKKYDGPEVDIWSLGVILYTLVSGSLPFDGHNLKELRERVLRGKYRVPFYMSTDCESILRRFLVLNPAKRCTLEQIMKDKWINIGYEGEELKPYTEPEEDFGDTKRIEVMVGMGYTREEIKESLTSQKYNEVTATYLLLGRKTEEGGDRGAPGLALARVRAP” the protein production was “failed”.

In the case of “MLKILVRLYLVIIVAYAGALLFIPDTIVGLFRDRFMAYNLDQAKGVQALIVRQFRQAPREQWPAVEQELASDFAPLELQLLRRDQAGLSDEEQARLEQGLYAVRIAEWGYYETVLAPLDKEWLIRLHSPPDPLDINVLSWGVTVLIGAAMLGCLLLWVWPHWRDLERLKETARRLGQGQMAERTHISPHSNIGELAGVFDTMASDLERHVNQQRELLNAVSHELRTPLTRLDFGLVLLFDEVPPASRKRLLELVGHVRELDELVLELLSYSRLYNADQARERVEVSLLELVDSVLGGFAEELDGRGIQWEVRAEGELPRFVLDPRLTARAVQNLVRNAMRYCDESLLLRLRLEADGACLLTVEDDGIGVPVEERERVFQPFYRLDRSRDRNTGGFGLGLAISRRAIEGQGGTLTLAQSALGGAQFRIRLPAGG”, the protein production is reported as “failed”.
